The experiment concerns the target MBP-Spt16 (budding yeast, UniProt P32558 1-1035). Kind of experiment: pull-down.

Sequence of MBP-Spt16 (P32558 whole entry): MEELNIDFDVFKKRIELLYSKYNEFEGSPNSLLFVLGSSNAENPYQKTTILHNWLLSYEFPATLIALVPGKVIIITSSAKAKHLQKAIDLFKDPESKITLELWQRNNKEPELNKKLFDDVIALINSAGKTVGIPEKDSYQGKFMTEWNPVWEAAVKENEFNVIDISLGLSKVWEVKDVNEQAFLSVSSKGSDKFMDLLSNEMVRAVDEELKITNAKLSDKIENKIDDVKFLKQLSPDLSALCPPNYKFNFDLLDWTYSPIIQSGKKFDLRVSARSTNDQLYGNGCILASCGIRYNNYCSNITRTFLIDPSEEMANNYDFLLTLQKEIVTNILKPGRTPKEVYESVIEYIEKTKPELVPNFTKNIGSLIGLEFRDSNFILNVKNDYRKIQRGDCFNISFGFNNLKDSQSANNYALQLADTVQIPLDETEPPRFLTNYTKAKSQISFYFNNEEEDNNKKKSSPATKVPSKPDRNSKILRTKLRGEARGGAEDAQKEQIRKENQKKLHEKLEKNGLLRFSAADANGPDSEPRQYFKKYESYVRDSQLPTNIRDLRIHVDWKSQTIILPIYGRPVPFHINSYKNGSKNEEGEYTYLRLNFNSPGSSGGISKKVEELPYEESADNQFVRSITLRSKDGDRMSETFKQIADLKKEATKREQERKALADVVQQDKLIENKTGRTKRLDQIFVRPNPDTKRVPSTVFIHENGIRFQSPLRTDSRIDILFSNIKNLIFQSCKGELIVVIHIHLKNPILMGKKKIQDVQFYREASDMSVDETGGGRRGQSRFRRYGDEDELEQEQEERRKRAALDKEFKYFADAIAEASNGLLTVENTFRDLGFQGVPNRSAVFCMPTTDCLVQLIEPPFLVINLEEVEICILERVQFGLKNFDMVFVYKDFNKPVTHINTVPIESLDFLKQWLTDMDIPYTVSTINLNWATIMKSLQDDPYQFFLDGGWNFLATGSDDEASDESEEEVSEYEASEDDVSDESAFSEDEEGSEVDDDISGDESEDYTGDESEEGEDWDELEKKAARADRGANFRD

B1: GST-Psh1, full-length [FL (1-406)] (enzyme, budding yeast, UniProt Q12161 1-406, looked up)
chain: MGDELHNRLLHQNDGTKDAILYKIIESLVCSICHDYMFVPMMTPCGHNYCYGCLNTWFASNTQKELACPQCRSDITTIPALNTTLQQYLSFILEKLRDQNDESFKKLLTTKTKEENDYKNDKEKDTLFDKVFKNSALAVADDSDDGITRCSNCHWELDPDEVEDGNVCPHCNARIRNYAGGRDEFDEEEYSEGELDEIRESMRRRRENRFASTNPFANRDDVSSEDDDSSEEEPMREHIPLGRWARSHNRSIAVDAVDDEDDEEEDEEEEEEMDSDLKDFIEDDEDDEDEDGSRRNLVLSALKNRHVIITDDEEEEQRRHATEEEDRDSDFYEHNDDGFVSGDSLDEDQKEVTRIQSSSDSEDRSLSYSGSSDVKDNNDDNTEELDDPQPKRQKRFRVVLGDSDDE
Take B1: the binding result is reported as “binds”.

(Values after publication PMC4197964 (Genes & Development, 2014).)
